Assay [1] has as its target T1, Full Axl (ECD domain of human Axl) (human, UniProt P30530 26-451).
T1 construct: also called human Axl ECD
T1 sequence: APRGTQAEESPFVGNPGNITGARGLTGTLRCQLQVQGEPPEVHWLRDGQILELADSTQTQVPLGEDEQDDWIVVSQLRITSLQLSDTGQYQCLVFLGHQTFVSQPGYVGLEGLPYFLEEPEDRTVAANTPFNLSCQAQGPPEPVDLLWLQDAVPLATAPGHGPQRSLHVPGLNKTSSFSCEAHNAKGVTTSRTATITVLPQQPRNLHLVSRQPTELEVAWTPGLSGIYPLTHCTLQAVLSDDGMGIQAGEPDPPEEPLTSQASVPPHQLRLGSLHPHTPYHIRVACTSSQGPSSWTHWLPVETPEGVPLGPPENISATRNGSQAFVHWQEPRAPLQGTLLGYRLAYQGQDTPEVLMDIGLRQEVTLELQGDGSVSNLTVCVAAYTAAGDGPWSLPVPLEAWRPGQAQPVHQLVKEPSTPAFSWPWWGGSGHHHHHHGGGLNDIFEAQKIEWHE
The experiment in a line: SPR (data not shown). The procedure: (§1) Binding of anti-MerTK antibodies of the present disclosure to these domain-swapped chimera or deletion mutants was tested by Surface Plasmon Resonance (SPR) using Carterra LSA. Purified anti-MerTK antibodies were immobilized in duplicate on a HC30M chip (Carterra) by amine coupling, following the manufacturer's instructions (described previously).
(§2) Supernatants containing the constructs were diluted 1:1 with running buffer containing 0.5 mg/mL BSA (HBS-TE, Carterra; BSA, Sigma) and injected over the immobilized antibodies. The surface was regenerated with 10 mM Glycine pH2.0 after each construct injection. Sensorgrams were analyzed using Carterra Epitope software to identify patterns of construct binding. Loss of binding to MerTK constructs with domains deleted or swapped in from Axl and/or gain of binding to Axl constructs with MerTK domains swapped in were evaluated. Data from these studies were used to construct a domain binding map for anti-MerTK antibodies and their binding to various domains of human MerTK.

Assay [2] has as its target T2, recombinant murine MerTK extracellular domain (mouse, UniProt Q60805 19-497).
T2 construct: also called Mouse MerTK; murine MerTK ECD; not shown: polyHis or TEVS/Thrombin/murine IgG2a-Fc tag
T2 sequence: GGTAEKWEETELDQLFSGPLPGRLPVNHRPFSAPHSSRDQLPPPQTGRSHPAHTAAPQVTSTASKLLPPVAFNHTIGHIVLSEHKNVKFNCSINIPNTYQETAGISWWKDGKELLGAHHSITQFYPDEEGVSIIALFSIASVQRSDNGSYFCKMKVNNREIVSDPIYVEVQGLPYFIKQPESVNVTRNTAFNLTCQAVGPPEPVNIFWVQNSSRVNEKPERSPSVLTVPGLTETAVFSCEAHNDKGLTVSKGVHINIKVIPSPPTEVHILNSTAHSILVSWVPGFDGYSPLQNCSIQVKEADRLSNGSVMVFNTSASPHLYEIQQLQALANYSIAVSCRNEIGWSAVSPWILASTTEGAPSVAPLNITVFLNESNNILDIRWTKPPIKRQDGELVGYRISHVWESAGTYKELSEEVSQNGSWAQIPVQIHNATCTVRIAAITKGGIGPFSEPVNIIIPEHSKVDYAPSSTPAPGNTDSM
The experiment in a line: SPR Carterra LSA, Ab immobilised. The procedure:
Binding kinetics of anti-MerTK IgG1 antibodies of the present disclosure to human, cyno, and murine MerTK were evaluated using a Carterra LSA instrument (Carterra, Salt Lake City, UT). […] A HC200M sensor chip (Carterra) was activated using the single channel flow cell with a 7-minute injection of a 1:1:1 mixture of 100 mM MES pH 5.5, 100 mM sulfo-NHS, 400 mM EDC (all reconstituted in MES pH 5.5; 100 μl of each mixed in vial immediately before running assay). After switching to the multi-channel array flow cell, the antibodies were injected over the activated chip in three 96-spot arrays for 10 minutes each. The remaining unconjugated active groups on the chip were then blocked by injecting 1M Ethanolamine pH 8.5 (Carterra) for 7 minutes using the single channel flow cell. The resulting sensor chip contained three spots for each antibody, at three different densities. Two independent experiments were performed as follows, resulting in an N of between one and six determinations for each antibody. Spots that yielded less than 25 RU of analyte binding were excluded from further analysis.
After priming with running buffer (HBS-TE, Carterra) with 0.5 mg/ml BSA (Sigma), the immobilized anti-MerTK antibodies were tested for their ability to bind to several forms of recombinant MerTK extracellular domain, including human, cynomolgus, and mouse orthologs as described above. Estimates of affinity were generated by injecting each analyte over the entire antibody array using the single channel flow cell. MerTK analytes were diluted with running buffer, in a series of six, three-fold serial dilutions starting from 1 μM for human and cynomolgus MerTK, and 600 nM for mouse MerTK. Analytes were injected for 5 minutes, and dissociation was followed for 10 minutes. After each analyte injection, antibodies were regenerated with either Protein A/G Elution Buffer (Thermo) with 1M NaCl (Teknova), or with 10 mM Glycine pH 2.5. Three buffer blanks were run between each series (one species per series). Data were processed and analyzed using NextGenKIT high-throughput kinetics analysis software (Carterra).

For assay [3], the target named is T3, MerTK N-terminal ECD Half-and-half chimera (human).
T3 construct: tested as culture supernatant; also called MerTK N-term half-and-half chimera; MerTK N-terminal ECD (NT-Ig1-Ig2) + Axl C-terminal ECD (FN1-FN2-JM)
T3 chain: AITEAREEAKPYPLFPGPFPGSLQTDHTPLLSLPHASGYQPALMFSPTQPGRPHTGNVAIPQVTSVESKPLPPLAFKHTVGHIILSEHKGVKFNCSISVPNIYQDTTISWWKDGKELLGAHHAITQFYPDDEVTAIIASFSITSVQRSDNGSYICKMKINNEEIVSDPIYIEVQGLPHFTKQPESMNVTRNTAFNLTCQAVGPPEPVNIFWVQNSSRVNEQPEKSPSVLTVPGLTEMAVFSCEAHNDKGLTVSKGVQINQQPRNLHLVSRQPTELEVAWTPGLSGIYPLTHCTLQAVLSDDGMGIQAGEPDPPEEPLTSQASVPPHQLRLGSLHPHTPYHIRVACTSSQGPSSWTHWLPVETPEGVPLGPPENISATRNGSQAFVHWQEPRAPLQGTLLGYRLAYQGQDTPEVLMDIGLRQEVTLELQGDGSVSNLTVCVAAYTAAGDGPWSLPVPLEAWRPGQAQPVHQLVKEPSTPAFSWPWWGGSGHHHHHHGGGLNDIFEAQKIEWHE
The experiment in a line: SPR, construct supernatant over immobilised Ab. On the procedure:
as §1, §2
(SPR reads the build-up and loss of mass on a sensor chip optically.)

Assay [4] has as its target T4, endogenous murine MerTK on bone marrow-derived macrophages (mouse, UniProt Q60805 19-994).
T4 construct: whole, on cells; MFI on MerTK KO BMDM subtracted; also called BMDM WT-KO
T4 sequence (looked up): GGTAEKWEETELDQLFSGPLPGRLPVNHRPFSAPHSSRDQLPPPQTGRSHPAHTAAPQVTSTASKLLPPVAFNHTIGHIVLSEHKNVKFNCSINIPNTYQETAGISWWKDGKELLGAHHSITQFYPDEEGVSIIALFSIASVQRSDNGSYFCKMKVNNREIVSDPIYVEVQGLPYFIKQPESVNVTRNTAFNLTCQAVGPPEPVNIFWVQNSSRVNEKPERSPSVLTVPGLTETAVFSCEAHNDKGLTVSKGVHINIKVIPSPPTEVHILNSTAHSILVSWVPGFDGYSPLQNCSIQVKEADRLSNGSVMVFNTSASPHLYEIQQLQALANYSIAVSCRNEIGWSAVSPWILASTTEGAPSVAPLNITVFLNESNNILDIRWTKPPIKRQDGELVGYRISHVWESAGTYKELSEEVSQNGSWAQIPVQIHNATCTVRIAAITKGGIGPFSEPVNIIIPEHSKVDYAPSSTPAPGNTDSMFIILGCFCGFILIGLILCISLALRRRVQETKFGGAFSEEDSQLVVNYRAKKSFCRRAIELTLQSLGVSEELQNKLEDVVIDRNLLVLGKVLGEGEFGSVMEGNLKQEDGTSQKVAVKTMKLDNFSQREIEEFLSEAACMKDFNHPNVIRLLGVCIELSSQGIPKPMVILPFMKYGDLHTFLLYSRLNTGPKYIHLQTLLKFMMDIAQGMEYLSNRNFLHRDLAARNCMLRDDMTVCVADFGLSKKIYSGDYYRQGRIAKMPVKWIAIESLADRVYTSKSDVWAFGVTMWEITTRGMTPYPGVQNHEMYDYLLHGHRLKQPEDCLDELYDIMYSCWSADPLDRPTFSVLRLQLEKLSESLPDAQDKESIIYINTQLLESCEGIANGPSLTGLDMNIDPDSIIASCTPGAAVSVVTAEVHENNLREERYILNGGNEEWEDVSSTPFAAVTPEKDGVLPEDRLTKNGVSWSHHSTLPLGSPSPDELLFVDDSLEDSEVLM
The experiment in a line: FACS, mouse BMDM, WT minus MerTK KO. The procedure: (§3) To determine whether recombinant anti-human MerTK antibodies of the present disclosure bind to human MerTK endogenously expressed on SK-MEL-5 cells and CHO cells overexpressing mouse MerTK (CHO-muMerTK OE cells), as compared to A375 and parental CHO cells as negative controls, the following experiments were performed. SK-MEL-5 cells, A375 cells, CHO-muMerTK OE cells, and CHO parental cells were plated at 100,000 cells/well. Anti-MerTK antibodies were added to the cells at 10 μg/ml. After 60 minutes on ice, cells were washed and then stained with PE-conjugated goat anti-human IgG antibody (Southern Biotech Cat #2040-09, Birmingham, AL) in the presence of Fc block solution on ice for 30 minutes, and then washed twice with cold FACS buffer (2% FBS in PBS). Mouse anti-human MerTK-PE conjugated (Biolegend, Clone 590H11G1E3) or anti-mouse MerTK-PE conjugated (ThermoFisher, Clone DS5MMER) antibodies were used as positive controls. Stained cells were acquired on a BD FACS Canto II cytometer and the mean fluorescence intensity (MFI) was calculated with FlowJo.
To confirm anti-MerTK antibody binding to endogenous murine MerTK, bone marrow-derived macrophages (BMDM) were isolated from MerTK wild type (WT) and knockout (KO) mice (The Jackson Laboratory, Cat #011122) using standard protocols. Briefly, cells isolated from the bone marrow were plated in the presence of 50 ng/ml M-CSF (R&D Systems, Cat #416-ML) for seven days to allow for differentiation into macrophages. Cell staining, FACs, and MFI were performed and calculated as described above.
Background: A flow cytometer gives signals particle by particle.

Assay [5] concerns the target T5, mouse MerTK overexpressed on CHO cells (mouse, UniProt Q60805 19-994).
T5 construct: whole, on cells; also called CHO-muMerTK OE
T5 sequence (looked up): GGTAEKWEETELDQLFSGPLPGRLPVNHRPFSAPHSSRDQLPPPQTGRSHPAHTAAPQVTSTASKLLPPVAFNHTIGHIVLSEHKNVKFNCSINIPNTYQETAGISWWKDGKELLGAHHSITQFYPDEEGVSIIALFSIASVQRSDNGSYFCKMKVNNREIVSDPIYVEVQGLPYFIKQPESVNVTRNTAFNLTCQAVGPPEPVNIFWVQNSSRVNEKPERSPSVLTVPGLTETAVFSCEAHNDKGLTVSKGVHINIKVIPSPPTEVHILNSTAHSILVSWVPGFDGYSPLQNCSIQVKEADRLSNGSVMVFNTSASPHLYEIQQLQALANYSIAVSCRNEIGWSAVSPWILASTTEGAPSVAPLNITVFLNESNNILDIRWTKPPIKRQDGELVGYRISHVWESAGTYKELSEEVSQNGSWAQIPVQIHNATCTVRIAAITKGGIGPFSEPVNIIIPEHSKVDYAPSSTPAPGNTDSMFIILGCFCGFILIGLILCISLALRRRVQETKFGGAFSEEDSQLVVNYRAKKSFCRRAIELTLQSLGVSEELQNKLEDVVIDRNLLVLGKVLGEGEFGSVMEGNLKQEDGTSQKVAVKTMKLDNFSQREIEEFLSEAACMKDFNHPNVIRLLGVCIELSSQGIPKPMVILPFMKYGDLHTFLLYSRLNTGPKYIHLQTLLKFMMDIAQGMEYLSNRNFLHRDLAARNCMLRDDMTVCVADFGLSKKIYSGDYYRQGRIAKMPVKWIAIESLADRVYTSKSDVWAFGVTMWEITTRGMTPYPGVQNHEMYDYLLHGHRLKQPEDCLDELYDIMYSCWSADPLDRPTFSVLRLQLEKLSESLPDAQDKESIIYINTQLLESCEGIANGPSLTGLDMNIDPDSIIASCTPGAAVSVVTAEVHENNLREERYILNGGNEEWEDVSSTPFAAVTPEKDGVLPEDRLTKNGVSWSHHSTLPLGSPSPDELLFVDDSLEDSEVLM
The experiment in a line: FACS, CHO-muMerTK OE cells, 10 ug/ml. On the procedure:
as §3

B1: MTK-217 (antibody, human IgG1, V domains shown)
VH: QVQLQQPGTEVVKPGASVKMSCRASGYTFTSYWITWVKQRPGQGLEWIGDIHPGSGINNYNEKFRSKATLTVDTSSSTVYMELSSLTSEDSAVYYCAKGGYYGSSYYVMDYWGQGTSVTVSS
VL: DILLTQSPAILSVSPGERVSFSCRASQTIGTSIHWYQQRTNDSPRLLIKYASESISGIPSRFSGSGSGTDFTLSINSVESEDIADYYCQQSNDWPYTFGGGTKLEIK
B1: the binding result is “no binding” in assay [1], “no binding (tested: analyte up to 600 nM)” in assay [2] and “no binding” in assay [3].

B2: MTK-205 (antibody, human IgG1, V domains shown)
VH: EVQLQQSGPELVKPGASVKISCKTSGYTFTEYIMHWVKQSHGKSLEWIGGINPNNLGIIYNQKFKGKATLTVDKSSSTAYMELRSLTSEDSEVYYCARDGYFGFDYWGQGTTLKVSS
VL: DIVMTQSHKFMSTSVGDRVSITCKASQDVGTSVAWYQQKPGHSPKLLIYWTSTRRTGVPDRFTGSGSGTDFTLTISNVQSEDLADYFCHQYNSYPLTFGAGTKLELK
For the molecule B2, the binding result in assay [1] and in assay [3] was “no binding” in each case. In addition, the MFI turned out to be 737 MFI in assay [4] and 240 MFI in assay [5].
